Test [1] concerns the target T1, LT-α (UniProt P01374 35-205).
T1 sequence (looked up): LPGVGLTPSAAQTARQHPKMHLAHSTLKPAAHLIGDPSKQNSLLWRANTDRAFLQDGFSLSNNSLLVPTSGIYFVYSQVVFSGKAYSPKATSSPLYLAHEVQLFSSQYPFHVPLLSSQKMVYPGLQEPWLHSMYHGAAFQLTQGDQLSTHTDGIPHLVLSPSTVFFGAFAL
Briefly: ELISA, coated LT-α. As for the experimental part: (§1) In this experiment, ELISA was used to assess the binding ability of monoclonal antibodies to TL1A homologous molecules. Representative members of the TNF ligand superfamily, TNFα, LT-α, LIGHT and FASL, were selected for binding testing. 1 μg/mL of TNFα, LT-α, LIGHT or FASL was coated in a microplate with a carbonate buffer solution at pH=9.6, 100 μL per well, and the microplate was incubated at 4° C. overnight. The microplate was then washed 5 times with PBST, blocked with 300 μL/well of PBS containing 1% BSA, and was incubated at room temperature for 1 hour. After washing 5 times with PBST, about 100 μL each of the M701 monoclonal antibodies and the control antibodies were added to each well, and were incubated at room temperature for 1 hour. After washing 5 times with PBST, 100 μL of HRP-anti-human Fc (Sino Biological) was added to each well, and was incubated at room temperature for 1 hour. After washing 5 times with PBST, 100 μL of colorimetric substrate TMB was added to each well, and color was developed at room temperature for 10 minutes, followed by addition of 1M sulfuric acid to terminate the reaction. OD450 nm was recorded on a microplate reader.

The target in test [2] is T2, LIGHT (UniProt O43557 74-240, limits assumed). Briefly: ELISA, coated LIGHT. As for the experimental part:
as §1
On the technique in general: ELISA stands for enzyme-linked immunosorbent assay.

The target of test [3] is T2, LIGHT. Briefly: ELISA, coated LIGHT, Ab 1.563 nM. As for the experimental part:
as §1

The target of test [4] is T3, FASL (UniProt P48023 134-281, limits assumed).
T3 sequence (looked up): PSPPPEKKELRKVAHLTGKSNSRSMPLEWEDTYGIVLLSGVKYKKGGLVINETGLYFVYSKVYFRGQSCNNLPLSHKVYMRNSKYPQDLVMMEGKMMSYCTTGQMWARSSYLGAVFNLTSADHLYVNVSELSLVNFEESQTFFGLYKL
Description: ELISA, coated FASL, Ab 0.000 nM (blank). Here is the method:
as §1

In test [5] the target is T3, FASL. Description: ELISA, coated FASL. As for the experimental part: as §1
The target of test [6] is T2, LIGHT. Description: ELISA, coated LIGHT, Ab 25 nM. Here is the method:
as §1

For test [7], the target named is T3, FASL. Briefly: ELISA, coated FASL, Ab 100 nM. As for the experimental part:
as §1

Test [8] has as its target T1, LT-α. Briefly: ELISA, coated LT-α, Ab 6.25 nM. Here is the method:
as §1

Test [9] concerns the target T3, FASL. Briefly: ELISA, coated FASL, Ab 0.391 nM. Here is the method:
as §1

Test [10] addresses T4, TNFα (UniProt P01375 77-233). Description: ELISA, coated TNF-α, Ab 1.563 nM. Here is the method: as §1
For test [11], the target named is T3, FASL. Briefly: ELISA, coated FASL, Ab 6.25 nM. As for the experimental part: as §1
Another test has as its target T5, human TL1A (HuTL1A) (human, UniProt O95150 57-251, limits assumed, biotin-labelled in some assays (site not stated)).
T5 sequence: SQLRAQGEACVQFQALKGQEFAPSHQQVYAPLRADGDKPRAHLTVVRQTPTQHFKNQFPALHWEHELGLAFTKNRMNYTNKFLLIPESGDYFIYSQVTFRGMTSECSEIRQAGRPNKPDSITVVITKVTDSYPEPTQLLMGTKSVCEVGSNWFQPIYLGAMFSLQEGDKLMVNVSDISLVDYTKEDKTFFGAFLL
Description: cell-based or functional assay.

Test [12] addresses T4, TNFα. Description: ELISA, coated TNF-α, Ab 25 nM. As for the experimental part: as §1
Test [13] deals with T3, FASL. Briefly: ELISA, coated FASL, Ab 1.563 nM. As for the experimental part: as §1
For test [14], the target named is T4, TNFα. Briefly: ELISA, coated TNF-α, Ab 0.391 nM. Here is the method: as §1
Test [15] has as its target T2, LIGHT. Description: ELISA, coated LIGHT, Ab 0.000 nM (blank). Here is the method: as §1
Test [16] has as its target T4, TNFα. Description: ELISA, coated TNFα. As for the experimental part:
as §1

The target of test [17] is T4, TNFα. Description: ELISA, coated TNF-α, Ab 6.25 nM. As for the experimental part: as §1
Test [18] has as its target T1, LT-α. Description: ELISA, coated LT-α, Ab 1.563 nM. As for the experimental part:
as §1

Test [19] has as its target T6, endogenous TL1A induced in PBMC by immune complexes (UniProt O95150 72-251, limits assumed).
T6 sequence (looked up): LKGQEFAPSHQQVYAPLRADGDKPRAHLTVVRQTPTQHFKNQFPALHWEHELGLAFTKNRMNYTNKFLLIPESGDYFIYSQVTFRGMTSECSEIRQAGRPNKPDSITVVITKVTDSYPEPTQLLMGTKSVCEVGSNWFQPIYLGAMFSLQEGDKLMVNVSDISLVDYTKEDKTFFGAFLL
Description: cell-based or functional assay.

T4 sequence (P01375 77-233 limits assumed): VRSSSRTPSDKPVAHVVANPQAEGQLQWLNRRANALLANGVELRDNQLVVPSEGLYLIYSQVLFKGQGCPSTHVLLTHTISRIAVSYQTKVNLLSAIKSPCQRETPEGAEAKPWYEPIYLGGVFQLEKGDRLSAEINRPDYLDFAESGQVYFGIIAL
T2 sequence (O43557 74-240 limits assumed): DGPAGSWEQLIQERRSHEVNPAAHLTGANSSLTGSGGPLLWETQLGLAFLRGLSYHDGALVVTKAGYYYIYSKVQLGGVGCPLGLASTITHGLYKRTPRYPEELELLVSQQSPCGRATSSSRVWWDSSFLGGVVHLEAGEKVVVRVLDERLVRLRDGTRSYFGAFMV

B1: M701-3966 (antibody, human IgG1, kappa, L234A L235A, V domains shown)
VH: ELQLQESGPGLVKPSETLSLTCAVSGVSFSDYHWAWIRQPPGKGLEWIGDINHRGHTNYNPSLKSRVTVSIDTSKNQFSLKLSSVTAADTAVYFCARDFPNFIFDYWGQGTLVTVSS
VL: DIQLTQSPGTLSLSPGERATLSCRASQSVSSYLAWYQQKPGQAPRLLIYGASKRATGIPDRFSGSGSGTDFTLTISRLEPEDFAVYYCQQYGDSPLTFGQGTKVEIKR
notes: Fc-engineered IgG1
Regarding B1, the binding result with LT-α [1], in the test with LIGHT [2], with FASL [5] and with TNFα [16] was “no binding (tested: 100 nM)” each time. The OD450 nm in the test with LIGHT [3] turned out to be 0.0573; with FASL [4], 0.0692; with LIGHT [6], 0.0674; in the test with FASL [7], 0.0914; in the test with LT-α [8] it was 0.06; in the test with FASL [9], 0.0504. Also, the OD450 nm in the test with TNFα [10] was found to be 0.0528; with FASL [11], 0.0525; with TNFα [12], 0.0593; with FASL [13], 0.0522; with TNFα [14], 0.0517; with LIGHT [15], 0.06. Moreover, the OD450 nm with TNFα [17] is 0.0511; in the test with LT-α [18], 0.0651. For the same molecule, the “IC50 (read off the curve); IFN-γ of human T cells with IL-12, IL-18 and exogenous human TL1A” value with human TL1A (HuTL1A) is approximately 0.3 nM.

B2: M701-4007 (antibody, human IgG1, kappa, L234A L235A, V domains shown)
VH: ELQLQESGPGLVKPSETLSLTCAVSGVSFSDYHWAWIRQPPGKGLEWIGDINHRGHTNYNPSLKSRVTVSIDTSKNQFSLKLSSVTAADTAVYFCARDFPNFIFDFWGQGTLVTVSS
VL: DIQLTQSPGTLSLSPGERATLSCRASQSVSTYLAWYQQKPGQAPRLLIYGASKRATGIPDRFSGSGSGTDFTLTISRLEPEDFAVYYCQQYGDSPLTFGQGTKVEIKR
notes: Fc-engineered IgG1
Take B2: the binding result with LT-α [1], in the test with LIGHT [2], with FASL [5] and with TNFα [16] was “no binding (tested: 100 nM)” in each case. The OD450 nm with LIGHT [3] came out at 0.0568; with FASL [4] it was 0.0648; with LIGHT [6], 0.063; with FASL [7] it was 0.089; with LT-α [8], 0.0588; with FASL [9], 0.0504. Also, the OD450 nm worked out at 0.0588 with TNFα [10]; 0.0523 with FASL [11]; 0.0665 with TNFα [12]; 0.06 in the test with FASL [13]; 0.0557 with TNFα [14]; 0.0568 with LIGHT [15]. The OD450 nm with TNFα [17] was 0.0553; in the test with LT-α [18] it was 0.0625. Moreover, the “IC50 (read off the curve); IFN-γ of human T cells with IL-12, IL-18 and exogenous human TL1A” value with human TL1A (HuTL1A) is approximately 0.2 nM. In test [19], the “IC50 (read off the curve); IFN-γ of PBMC stimulated with immune complex, IL-12 and IL-18” value is approximately 0.5 nM.

For the origin of these results see US20250313644A1 (FUTUREGEN BIOPHARMACEUTICAL BEIJING, published 2025).
